What was measured:
hGITR.mmh (human) = assay: SPR 37C, mAb capture
[1] = target: mfGITR.mmh (Macaca fasicularis); assay: SPR 37C, mAb capture
hGITR.hFc (human) = assay: SPR 37C, mAb capture
[2] = target: human GITR (amino acids M1-V241, NCBI Accession #NP_004186.1) expressed on cells (human) (UniProt Q9Y5U5); assay: cell-based or functional assay
Chain of human GITR (amino acids M1-V241, NCBI Accession #NP_004186.1) expressed on cells (human) (Q9Y5U5 26-241): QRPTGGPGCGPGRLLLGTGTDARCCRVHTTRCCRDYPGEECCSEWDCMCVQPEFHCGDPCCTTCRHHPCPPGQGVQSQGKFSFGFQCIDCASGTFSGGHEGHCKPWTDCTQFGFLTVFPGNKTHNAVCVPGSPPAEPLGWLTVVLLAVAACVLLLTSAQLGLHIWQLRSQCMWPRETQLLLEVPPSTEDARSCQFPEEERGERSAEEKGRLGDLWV

Chain of mfGITR.mmh (Macaca fasicularis) (chain, as listed by the source limits assumed): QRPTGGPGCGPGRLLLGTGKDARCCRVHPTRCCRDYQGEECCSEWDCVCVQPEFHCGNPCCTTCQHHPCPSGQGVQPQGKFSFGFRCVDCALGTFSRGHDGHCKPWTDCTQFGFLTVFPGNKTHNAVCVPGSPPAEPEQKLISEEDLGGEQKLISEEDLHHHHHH
Chain of hGITR.hFc (human) (chain, as listed by the source limits assumed): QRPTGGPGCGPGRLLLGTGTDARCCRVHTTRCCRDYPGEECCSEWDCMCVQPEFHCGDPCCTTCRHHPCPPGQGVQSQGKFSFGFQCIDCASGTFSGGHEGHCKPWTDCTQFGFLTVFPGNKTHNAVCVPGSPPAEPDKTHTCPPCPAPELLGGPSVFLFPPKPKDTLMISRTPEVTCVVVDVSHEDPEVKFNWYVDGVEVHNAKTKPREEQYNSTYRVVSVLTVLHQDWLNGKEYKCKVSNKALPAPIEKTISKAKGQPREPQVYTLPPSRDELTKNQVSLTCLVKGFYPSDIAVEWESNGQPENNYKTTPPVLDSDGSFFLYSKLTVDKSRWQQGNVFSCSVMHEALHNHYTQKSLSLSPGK
Chain of hGITR.mmh (human) (chain, as listed by the source limits assumed): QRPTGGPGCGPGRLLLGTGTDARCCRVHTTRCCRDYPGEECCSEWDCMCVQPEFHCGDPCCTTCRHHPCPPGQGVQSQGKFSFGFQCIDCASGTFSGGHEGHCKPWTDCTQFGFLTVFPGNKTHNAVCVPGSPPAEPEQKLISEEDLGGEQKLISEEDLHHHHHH

B1: Anti-GITR Control Ab I-mIgG1 (antibody, from another filing, V domains shown)
VH: QVTLKESGPGILKPSQTLSLTCSFSGFSLSTSGMGVGWIRQPSGKGLEWLAHIWWDDDKYYNPSLKSQLTISKDTSRNQVFLKITSVDTADAATYYCARTRRYFPFAYWGQGTLVTVSS
VL: DIVMTQSQKFMSTSVGDRVSVTCKASQNVGTNVAWYQQKPGQSPKALIYSASYRYSGVPDRFTGSGSGTDFTLTINNVHSEDLAEYFCQQYNTDPLTFGAGTKLEIK
- Kd (hGITR.mmh (human)): 122 nM
- koff (hGITR.mmh (human)): 0.0263 s⁻¹
- kon (hGITR.mmh (human)): 216000 M⁻¹ s⁻¹
- t½ (hGITR.mmh (human)): 24 s
- Kd [1]: 213 nM
- koff [1]: 0.0464 s⁻¹
- kon [1]: 218000 M⁻¹ s⁻¹
- t½ [1]: 12 s
- Kd (hGITR.hFc (human)): 20.4 nM
- koff (hGITR.hFc (human)): 0.0078 s⁻¹
- kon (hGITR.hFc (human)): 382000 M⁻¹ s⁻¹
- t½ (hGITR.hFc (human)): 90 s
- % Activation, NF-kB-Luc, non-anchored [2]: 25%
- % Blocking, NF-kB-Luc, FcgR anchored [2]: 60%
- % Blocking, NF-kB-Luc, non-anchored [2]: 54%
- EC50, T-cell proliferation, FcgR anchored, donor 1 [2]: 37.2 nM
- EC50, T-cell proliferation, FcgR anchored, donor 3 [2]: 42.9 nM
- EC50, T-cell proliferation, FcgR anchored, donor 4 [2]: 3.5 nM
- EC50, T-cell proliferation, FcgR anchored, donor 5 [2]: 52.7 nM
- EC50, T-cell proliferation, FcgR anchored, mean [2]: 34.1 nM
- EC50, hGITR activation, NF-kB-Luc, FcgR anchored [2]: 0.1 nM
- EC50, hGITR activation, NF-kB-Luc, non-anchored [2]: 1.02 nM
- Fold Activation over basal signal, NF-kB-Luc, FcgR anchored [2]: 6 fold
- IC50, blocking of hGITRL stimulation, NF-kB-Luc, FcgR anchored [2]: 0.2 nM
- IC50, blocking of hGITRL stimulation, NF-kB-Luc, non-anchored [2]: 0.1 nM
- fold activation, T-cell proliferation, 22 nM, non-anchored, donor 1 [2]: 0.7 fold
- fold activation, T-cell proliferation, 22 nM, non-anchored, donor 2 [2]: 0.8 fold
- fold activation, T-cell proliferation, 22 nM, non-anchored, donor 3 [2]: 1 fold
- fold activation, T-cell proliferation, 22 nM, non-anchored, donor 4 [2]: 1 fold
- fold activation, T-cell proliferation, 22 nM, non-anchored, mean [2]: 0.9 fold
- fold activation, T-cell proliferation, 33 nM, FcgR anchored, donor 1 [2]: 2.8 fold
- fold activation, T-cell proliferation, 33 nM, FcgR anchored, donor 2 [2]: 2.8 fold
- fold activation, T-cell proliferation, 33 nM, FcgR anchored, donor 3 [2]: 1.4 fold
- fold activation, T-cell proliferation, 33 nM, FcgR anchored, donor 4 [2]: 1.1 fold
- fold activation, T-cell proliferation, 33 nM, FcgR anchored, donor 5 [2]: 1.7 fold
- fold activation, T-cell proliferation, 33 nM, FcgR anchored, mean [2]: 2 fold
- fold activation, T-cell proliferation, plate-bound Ab 10.6 nM, donor 1 [2]: 6 fold
- fold activation, T-cell proliferation, plate-bound Ab 10.6 nM, donor 2 [2]: 23 fold
- fold activation, T-cell proliferation, plate-bound Ab 10.6 nM, donor 3 [2]: 23 fold
- fold activation, T-cell proliferation, plate-bound Ab 10.6 nM, donor 4 [2]: 40 fold
- fold activation, T-cell proliferation, plate-bound Ab 10.6 nM, donor 5 [2]: 23 fold
- fold activation, T-cell proliferation, plate-bound Ab 10.6 nM, donor 6 [2]: 66 fold
- fold activation, T-cell proliferation, plate-bound Ab 10.6 nM, donor 7 [2]: 25 fold
- fold activation, T-cell proliferation, plate-bound Ab 10.6 nM, donor 8 [2]: 11 fold
- fold activation, T-cell proliferation, plate-bound Ab 10.6 nM, mean [2]: 27 fold

B2: Anti-GITR Control Ab I-mIgG2a (antibody, from another filing, V domains shown)
VH: B1 VH
VL: B1 VL
- % Blocking, NF-kB-Luc, FcgR anchored [2]: 74%
- EC50, hGITR activation, NF-kB-Luc, FcgR anchored [2]: 0.2 nM
- Fold Activation over basal signal, NF-kB-Luc, FcgR anchored [2]: 5 fold
- IC50, blocking of hGITRL stimulation, NF-kB-Luc, FcgR anchored [2]: 0.01 nM
- fold activation, T-cell proliferation, 33 nM, FcgR anchored, donor 1 [2]: 1.1 fold
- fold activation, T-cell proliferation, 33 nM, FcgR anchored, donor 2 [2]: 0.1 fold
- fold activation, T-cell proliferation, 33 nM, FcgR anchored, donor 3 [2]: 1 fold
- fold activation, T-cell proliferation, 33 nM, FcgR anchored, donor 4 [2]: 1 fold
- fold activation, T-cell proliferation, 33 nM, FcgR anchored, donor 5 [2]: 1.2 fold
- fold activation, T-cell proliferation, 33 nM, FcgR anchored, mean [2]: 1.3 fold
